Laboratory results published in the supplement of paper PMC9170038.

Experiments:
Details in all cases: FMN input: 0 or 200 uM; Eterna round: R93 (includes R88 designs)
[1] = system: MS2 coat protein; test: apparent KD of MS2 coat protein, switch ON state; designed switch direction (-1 OFF switch, 1 ON switch): 1; higher = weaker reporter binding
How it was run: (§1)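 Apparent KD is reported per design as the median of normalised binding-curve fits across its clusters. The RNA switches were made by on-chip transcription from Illumina sequencing clusters. SNAP-549-labelled MS2 coat protein was then added in twofold steps (0.7 or 1.5 nM to 3 µM; 0.8–1.5 h to 10–20 min per step) in 100 mM Tris-HCl pH 7.5, 80 mM KCl, 4 mM MgCl2, without or with constant ligand.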

[2] = system: MS2 coat protein; test: apparent KD of MS2 coat protein, switch OFF state (with FMN for OFF switches, without FMN for ON switches); designed switch direction (-1 OFF switch, 1 ON switch): 1; higher = weaker reporter binding
How it was run: as §1

[3] = system: MS2 coat protein; test: apparent KD of MS2 coat protein, switch OFF state (with FMN for OFF switches, without FMN for ON switches); designed switch direction (-1 OFF switch, 1 ON switch): -1; higher = weaker reporter binding
How it was run: as §1

[4] = system: MS2 coat protein; test: apparent KD of MS2 coat protein, switch ON state; designed switch direction (-1 OFF switch, 1 ON switch): -1; higher = weaker reporter binding
How it was run: as §1

Row | Sequence | apparent KD of MS2 coat protein [1] | apparent KD of MS2 coat protein [2] | apparent KD of MS2 coat protein [3] | apparent KD of MS2 coat protein [4]
1 | AAAAAAAAGGGUGAGGAUAUAGAAAAAAAAACAUGAGGAUCACCCAUGUGAAAAAAAAAAAAAAGCUAGAAGGCACAAAAAAAAAA [Same State 2] | 79.2 nM | 159 nM | – | –
2 | UAGGGAACAGGGUAGGAUAUGCAUGGUCGUACAUGAGGAUCACCCAUGUAGCCUAGAAAAUAAAUGCAGAAGGGCCAAAAGAAAA [Raritea] | 39.8 nM | 67.1 nM | – | –
3 | GAUAGACAUGAGGAUCACCCAUGUAGAAUUAUGGGAGGAUAUACAAAGACGAGAGUCAGAGUAGAAGGCCUAGGAA [salish99-ss1-156] | 24.5 nM | 64.6 nM | – | –
4 | GAAAAACAUGAGGAUCACCCAUGUAGAAACAUGGGAGGAUAUACAAAGACGAAAGUCAAAGUAGAAGGCCUAAAAG [Mat - Same State 1 - Mod - D159] | 207 nM | 119 nM | – | –
5 | GUAGACAUAGUUCAGGAUAUAUGAAUAGUCACAUGAGGAUCACCCAUGUCCAUUUAUAUGGGCACAUAGAAGGGAGGUAGUUAAC [Mat - Same state - Malcolm Mod - D123] | 891 nM | 1140 nM | – | –
6 | UAAUAAUAAACCAAGGAUAUGGAGUAUAGAACAUGAGGAUCACCCAUGUGUAGCGUGGAAUAGUACCAGAAGGUGGAGUGAAAUG [JR_SS002_Sub1002] | 39.1 nM | 49.8 nM | – | –
7 | AAUCCACAUGAGGAUCACCCAUGUCAGGAAAUGACAGGAUAUAGCGAAAAAAAAAAAAAGCUAGAAGGGUCUAAUU [SameState1-cac2] | 31.3 nM | 107 nM | – | –
8 | GUAGAACAUGAGGAUCACCCAUGUGAGUACAGUGUAGGAUAUGGGCAUGAGAAGUCAUUUCUAGAAGGGCAAAUAA [Raatbiin] | 207 nM | 112 nM | – | –
9 | AUAAAACAUGAGGAUCACCCAUGUAGACAUAUGGGAGGAUAUACUAGAUCGAAAGAUCUAGUAGAAGGUCUUAAAA [JL Mod of Eli 10] | 205 nM | 183 nM | – | –
10 | AAAACACAUGAGGAUCACCCAUGUAAAAACAUGGGAGGAUAUGCUUGGAAAACAUGCUAUGCAGAAGGCUCAAGUG [SS1 - 12] | 72.6 nM | 46.4 nM | – | –
11 | AACAAUCUAUCUGAGGAUAUGUGUCGAAAGACAUGAGGAUCACCCAUGUGAAAACAUGGAAAAACACAGAAGGCAGAUAGAUUGA [SS2: 1150] | 147 nM | 202 nM | – | –
12 | CAGCGCUGUCGAGAGGAUAUGCGGUGAAGGACAUGAGGAUCACCCAUGUAAGCGAUAGUAUUACGGUAGAAGGCUCUACAGCUGC [Isdianbia] | 41.8 nM | 114 nM | – | –
13 | GAUCCACAUGAGGAUCACCCAUGUGAGGAUAUCGUGCAGAAAAAAAAAAAAAACUGCACGAGAAGGCACAUGGG | – | – | 13 nM | 19.4 nM
14 | AAAAUACGAGGAUAUACAUGAGGAUCACCCAUGUCAAAAAAUGACUACACAAAAGAAAGUAGAAGGCGUAAAAA [Ex 3 May 16] | – | – | 30.4 nM | 25.3 nM
15 | AAAAAACAUGAGGAUCACCCAUGUGAGGAUAUCCUGGUUGAAAAAAAAAAAACAACCAGGAGAAGGCACAAAAA [EXCL-I] | – | – | 57.8 nM | 45.2 nM
16 | AGCACGUCAGGAUAUACGAACACAAAGGGUAACAACAAGGGACAUGAGGAUCACCCAUGUAGAAGGGACUAGCA [Diamond 96] | – | – | 61.9 nM | 58.2 nM
17 | UCCUGACAUGAGGAUCACCCAUGUCAGGAUAUAGUAUGAAAAAAAAAAAAAAAAAAUACUAGAAGGGACAUGGG [Design 12: Super Stable Short Helix 3] | – | – | 21.6 nM | 29.2 nM
18 | AAGUCCAUAGGAUAUAUAUGGAUAUACAUUUAUGUAGAACUACAUGAGGAUCACCCAUGUAGAAGGAUGGAAUA [Mat - Same state - Mayanna Mod - D141] | – | – | 14.1 nM | 19.5 nM
19 | AAGAACUGAGGAUAUACAUGAGGAUCACCCAUGUAAAAGAAAGAAAAGGGAAAGAAAAGUAGAAGGCAGAAGAA [Nebmaatre Amenhotep III] | – | – | 42.8 nM | 36.9 nM
20 | AGCAAACAUGAGGAUCACCCAUGUGAGGAUAUGAACGAAAUAAAAUAAAAAUAAAAGUUCAGAAGGCACGAGCA [Mat - Exclusion 1 - Eli mod - D26] | – | – | 37.4 nM | 27.3 nM
21 | AAAAAACAUGAGGAUCACCCAUGUAAGGAUAUGUAAAAUAAAAGAAAAAUAAAGAAAAGCAGAAGGUACAUGGA [JL wbt mod 15] | – | – | 91.1 nM | 54.9 nM
22 | AGGGAGUGAGGAUAUGCGAAAGAAAAAGAAAAAAAAAAAAAGCAGAAGGUACAUGAGGAUCACCCAUGUAAAAA [milkweed 6] | – | – | 29.1 nM | 29.8 nM

Row | Sequence | apparent KD of MS2 coat protein [1] | apparent KD of MS2 coat protein [2] | apparent KD of MS2 coat protein [3] | apparent KD of MS2 coat protein [4]
23 | UAAAAGUGAGGAUAUGUCAAAAGUCACAAAAGUGACAAAAGACAGAAGGCACAUGAGGAUCACCCAUGUGAAAU [Mat - Exaclusion 4 - Eli mod - D56] | – | – | 32.2 nM | 23.3 nM
24 | AAGGGACAUGAGGAUCACCCAUGUCAGGAUAUGCUAUGGAAAAUAAAAAUAAAACAUAGCAGAAGGGACAAAAA [Denovo 4] | – | – | 53.1 nM | 38.5 nM
25 | AAAAAUGGAGGAUAUACAUGAGGAUCACCCAUGUGUAACUAUACUAAGCACACCUCACGUAGAAGGCCAAAAAA [Gilly Gone Silly 12 - Jieux - Exclusion 3] | – | – | 321 nM | 105 nM
26 | AGUUGGCGAGGAUAUACAUGAGGAUCACCCAUGUGAGAGAUAAAAGUGAGAAAGAAAAGUAGAAGGCGCUCACA [JL Lego Mod 15] | – | – | 60.1 nM | 107 nM
27 | AAAAAUGGAGGAUAUACGAACAUGUCAAAAGACGUGAAGGGACAUGAGGAUCACCCAUGUAGAAGGCUAAAAAA [JL Stem Breaker 3] | – | – | 40.3 nM | 87.1 nM
28 | AAAAAGUCAGGAUAUGCGAAGGCGUCUGAUAGACGAGGCUAGCAGAAGGGACAUGAGGAUCACCCAUGUGAAGA [Mat - Exclusion 4 - Eli mod - D84] | – | – | 97.5 nM | 49.8 nM
29 | AAAAUGUGAGGAUAUCCGAAGGCGUCUGAUAGACGAGGCUAGGAGAAGGCACAUGAGGAUCACCCAUGUAAAAA [Banishment 11 - Jieux - Exclusion 4] | – | – | 137 nM | 78.8 nM
30 | GAAAAGUCAGGAUAUAUAGGAAAAAUAAAAAAAAUAAAACUAUAGAAGGGACAUGAGGAUCACCCAUGUUAAAG [Mat - Exclusion 4 - Mayanna - D132] | – | – | 25.5 nM | 44.5 nM
31 | AAAAAGUGAGGAUAUGCGAAGGCGUCUGAUAGACGAGGCUAGCAGAAGGCACAUGAGGAUCACCCAUGUGGGAG [Mat - Exclusion 4 - Eli mod - D93] | – | – | 148 nM | 71.5 nM
32 | AAAAAACAUGAGGAUCACCCAUGUAAGGAUAUGCUGAAAAACACUGGAAAACAGUGCAGCAGAAGGUACAAAAA [66%, Wbt, 34] | – | – | 36.1 nM | 21.1 nM
33 | AAAAAGUGAGGAUAUAUAUGAAACAAAAAGAAAAAAAAAAAACAUGAGGAUCACCCAUGUAGAAGGCGCAAAAA ['Exclusion 2' Lab] | – | – | 21.5 nM | 27.1 nM
34 | CAAAGGUGAGGAUAUACAAGGAUAUGACGAAAGUCAUAAAAACAUGAGGAUCACCCAUGUAGAAGGCACCACAA [E2 64% 4] | – | – | 43.7 nM | 33.9 nM
35 | AAGAAGUCAGGAUAUCCAAAAGAAAAGAAAAGAAAAGAAAAGGAGAAGGGACAUGAGGAUCACCCAUGUAAGAA [Khnemibre Ahmose II] | – | – | 20.9 nM | 71.3 nM
36 | CGUUGGCGAGGAUAUACAUGAGGAUCACCCAUGUGAGAGAAAAAAGUGAGAAAGAAAAGUAGAAGGCGCUGACA [salish99-ex3-11] | – | – | 264 nM | 45.3 nM
37 | AAAAAACAUGAGGAUCACCCAUGUGAGGAUAUCCUAAAAAAAAAAAAAAAAAAAAAAAGGAGAAGGCACAUAAA [EXCLS-II] | – | – | 64.8 nM | 47.6 nM
38 | AGCUAGUGAGGAUAUACGAACAUGUCAAAAGACUGUAAGGGACAUGAGGAUCACCCAUGUAGAAGGCACUAGCA [Diamond 55] | – | – | 294 nM | 55.7 nM
39 | CAGUACUGAGGAUAUACAUGAGGAUCACCCAUGUGUUAAAGCUAGGAAACUAGCAAAUGUAGAAGGCAGUACUG [Ex3: 817] | – | – | 47.9 nM | 14 nM
40 | AAGAAACAUGAGGAUCACCCAUGUCAGGAUAUCUAAAAGAAAAGAAAAGAAAGAAGAAAGAGAAGGGACAAAGG [Neferirkare] | – | – | 61.3 nM | 39.2 nM
41 | AACAAGACAGGAUAUACAUGAGGAUCACCCAUGUCACAAUAAAGCAGCGUAACACAAAGUAGAAGGGUCAUGGA [Ruby 9] | – | – | 71.5 nM | 83.3 nM
42 | GAAAAGUGAGGAUAUGUCAAAAGUCACAAAAGUGACAAAAGACAGAAGGCACAUGAGGAUCACCCAUGUGAAAG [Mat - Exaclusion 4 - Eli mod - D54] | – | – | 28.4 nM | 24.7 nM
43 | AGUCAGAGAGGAUAUACAUGAAAAAAAAAAGUAAGAUCCCUACAUGAGGAUCACCCAUGUAGAAGGCUCUGACA [Ex2 Design 137: Sub-opt 1] | – | – | 26.8 nM | 60.5 nM
